Source: article PMC9482650, “Quantitative fragmentomics allow affinity mapping of interactomes” (Nature Communications, 2022)
Blank lines part the entries; values can stand above or below the binder they belong to.

Tests used:
Experiment in all cases: holdup assay
Design in all cases: key: below the threshold = too weak to quantify, mostly under pKd 3.1 to 4
DLG4_2, P78352 = molecular target: DLG4_2, P78352
IL16_1, Q14005 = molecular target: IL16_1, Q14005
MAGI2_2, Q86UL8 = molecular target: MAGI2_2, Q86UL8
LNX2_2, Q8N448 = molecular target: T1, LNX2_2, Q8N448
T1 sequence (Q8N448 334-432, limits assumed, looked up): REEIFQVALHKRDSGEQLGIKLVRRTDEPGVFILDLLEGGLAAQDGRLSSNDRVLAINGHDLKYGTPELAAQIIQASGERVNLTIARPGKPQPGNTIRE

NHERF3_4, Q5T2W1 = molecular target: T2, NHERF3_4, Q5T2W1
T2 sequence (Q5T2W1 373-468, limits assumed, looked up): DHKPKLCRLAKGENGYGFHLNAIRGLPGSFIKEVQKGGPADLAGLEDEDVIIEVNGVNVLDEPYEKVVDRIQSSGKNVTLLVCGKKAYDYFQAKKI

TX1BP3, O14907 = molecular target: T3, TX1BP3, O14907
T3 sequence (O14907 10-122, limits assumed, looked up): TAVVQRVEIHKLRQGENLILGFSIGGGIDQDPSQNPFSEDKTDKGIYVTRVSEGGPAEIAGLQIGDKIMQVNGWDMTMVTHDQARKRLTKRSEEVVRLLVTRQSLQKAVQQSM

SYNJ2BP, P57105 = molecular target: T4, SYNJ2BP, P57105
T4 sequence (P57105 8-110, limits assumed, looked up): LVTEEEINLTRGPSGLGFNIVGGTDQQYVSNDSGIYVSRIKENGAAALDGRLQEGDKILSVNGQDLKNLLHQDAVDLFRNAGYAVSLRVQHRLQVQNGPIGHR

FRMPD2_2, Q68DX3 = molecular target: FRMPD2_2, Q68DX3
FRMPD2_1, Q68DX3 = molecular target: FRMPD2_1, Q68DX3
SNX27, Q96L92 = molecular target: SNX27, Q96L92
MPDZ_12, O75970 = molecular target: T5, MPDZ_12, O75970
T5 sequence (O75970 1857-1958, limits assumed, looked up): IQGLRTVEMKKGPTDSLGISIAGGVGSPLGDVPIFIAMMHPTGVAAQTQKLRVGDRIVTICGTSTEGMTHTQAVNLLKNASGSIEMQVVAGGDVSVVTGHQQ

DLG5_1, Q8TDM6 = molecular target: DLG5_1, Q8TDM6
PDZRN3_1, Q9UPQ7 = molecular target: T6, PDZRN3_1, Q9UPQ7
T6 sequence (Q9UPQ7 244-349, limits assumed, looked up): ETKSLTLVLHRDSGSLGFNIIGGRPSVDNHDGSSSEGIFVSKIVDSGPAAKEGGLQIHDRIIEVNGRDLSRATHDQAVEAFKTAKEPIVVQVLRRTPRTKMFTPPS

TJP1_2, Q07157 = molecular target: TJP1_2, Q07157
LDB3, O75112 = molecular target: LDB3, O75112
GRID2IP_2, A4D2P6 = molecular target: GRID2IP_2, A4D2P6
SNTG1, Q9NSN8 = molecular target: T7, SNTG1, Q9NSN8
T7 sequence (Q9NSN8 52-150, limits assumed, looked up): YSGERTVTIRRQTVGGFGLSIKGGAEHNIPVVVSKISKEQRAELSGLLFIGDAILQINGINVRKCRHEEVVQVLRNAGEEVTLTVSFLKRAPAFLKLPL

SNTG2, Q9NY99 = molecular target: T8, SNTG2, Q9NY99
T8 sequence (Q9NY99 68-166, limits assumed, looked up): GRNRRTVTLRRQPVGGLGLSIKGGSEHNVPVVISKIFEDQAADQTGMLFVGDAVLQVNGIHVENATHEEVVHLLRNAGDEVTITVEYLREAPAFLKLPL

TIAM2, Q8IVF5 = molecular target: T9, TIAM2, Q8IVF5
T9 sequence (Q8IVF5 885-986, limits assumed, looked up): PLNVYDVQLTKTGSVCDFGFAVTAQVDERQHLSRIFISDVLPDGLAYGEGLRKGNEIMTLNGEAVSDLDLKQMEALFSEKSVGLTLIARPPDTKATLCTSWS

GRIP1_5, Q9Y3R0 = molecular target: T10, GRIP1_5, Q9Y3R0
T10 sequence (Q9Y3R0 568-668, limits assumed, looked up): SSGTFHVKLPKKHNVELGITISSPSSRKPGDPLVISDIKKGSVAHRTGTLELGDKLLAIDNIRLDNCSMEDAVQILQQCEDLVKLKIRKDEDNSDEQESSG

NOS1, P29475 = molecular target: NOS1, P29475
MAGI2_3, Q86UL8 = molecular target: MAGI2_3, Q86UL8
MAGI2_5, Q86UL8 = molecular target: MAGI2_5, Q86UL8
GRID2IP_1, A4D2P6 = molecular target: GRID2IP_1, A4D2P6
DLG4_3, P78352 = molecular target: DLG4_3, P78352
MAGI3_2, Q5TCQ9 = molecular target: MAGI3_2, Q5TCQ9
PARD3_3, Q8TEW0 = molecular target: PARD3_3, Q8TEW0
SCRIB_2, Q14160 = molecular target: SCRIB_2, Q14160
[1] = plain residues with an end cap or a label only (N-terminal biotin on a linker: ahx)
[2] = plain residues with an end cap or a label only (N-terminal biotin on a linker: gsgsgs; C-terminal amide)

MAGI2_2, Q86UL8, sequence (Q86UL8 410-522): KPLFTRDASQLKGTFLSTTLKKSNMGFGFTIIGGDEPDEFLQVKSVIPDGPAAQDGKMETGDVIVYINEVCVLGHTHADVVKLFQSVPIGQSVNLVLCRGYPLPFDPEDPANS
GRID2IP_2, A4D2P6, sequence (A4D2P6 272-370): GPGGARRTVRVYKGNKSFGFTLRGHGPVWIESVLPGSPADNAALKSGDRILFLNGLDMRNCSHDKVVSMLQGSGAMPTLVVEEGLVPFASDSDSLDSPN
TJP1_2, Q07157, sequence (Q07157 181-274): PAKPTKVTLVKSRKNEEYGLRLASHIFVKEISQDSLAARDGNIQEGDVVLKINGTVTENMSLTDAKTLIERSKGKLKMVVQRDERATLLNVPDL
FRMPD2_2, Q68DX3, sequence (Q68DX3 944-1038): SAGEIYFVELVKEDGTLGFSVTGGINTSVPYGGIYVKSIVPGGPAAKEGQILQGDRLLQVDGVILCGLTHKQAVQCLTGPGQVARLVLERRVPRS
SCRIB_2, Q14160, sequence (Q14160 857-960): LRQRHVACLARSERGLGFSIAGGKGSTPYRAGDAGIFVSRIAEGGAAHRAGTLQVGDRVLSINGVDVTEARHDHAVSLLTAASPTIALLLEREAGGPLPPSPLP
NOS1, P29475, sequence (P29475 9-101): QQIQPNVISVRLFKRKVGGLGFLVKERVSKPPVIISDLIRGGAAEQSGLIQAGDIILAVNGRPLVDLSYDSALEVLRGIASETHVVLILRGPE
PARD3_3, Q8TEW0, sequence (Q8TEW0 582-685): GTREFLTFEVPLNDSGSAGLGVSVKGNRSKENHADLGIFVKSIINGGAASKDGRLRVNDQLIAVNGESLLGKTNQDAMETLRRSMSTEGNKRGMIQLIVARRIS
DLG4_3, P78352, sequence (P78352 306-403): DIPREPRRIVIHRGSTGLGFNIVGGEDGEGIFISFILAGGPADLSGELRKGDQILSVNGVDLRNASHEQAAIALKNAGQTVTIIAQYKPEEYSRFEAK
MAGI2_3, Q86UL8, sequence (Q86UL8 600-682): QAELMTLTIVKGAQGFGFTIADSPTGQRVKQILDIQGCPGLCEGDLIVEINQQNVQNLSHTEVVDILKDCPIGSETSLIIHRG
DLG5_1, Q8TDM6, sequence (Q8TDM6 617-713): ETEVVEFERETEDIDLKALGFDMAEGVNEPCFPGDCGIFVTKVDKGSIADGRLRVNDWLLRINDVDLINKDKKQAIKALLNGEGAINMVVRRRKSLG
FRMPD2_1, Q68DX3, sequence (Q68DX3 770-861): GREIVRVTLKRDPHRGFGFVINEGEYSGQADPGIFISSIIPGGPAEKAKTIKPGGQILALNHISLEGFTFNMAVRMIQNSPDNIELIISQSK
GRID2IP_1, A4D2P6, sequence (A4D2P6 1-87): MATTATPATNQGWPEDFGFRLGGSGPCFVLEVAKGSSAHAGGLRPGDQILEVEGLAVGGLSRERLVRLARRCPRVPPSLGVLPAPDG
LDB3, O75112, sequence (O75112 1-94): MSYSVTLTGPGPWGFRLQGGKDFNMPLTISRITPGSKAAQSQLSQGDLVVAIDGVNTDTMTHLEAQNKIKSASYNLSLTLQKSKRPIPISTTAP
IL16_1, Q14005, sequence (Q14005 210-306): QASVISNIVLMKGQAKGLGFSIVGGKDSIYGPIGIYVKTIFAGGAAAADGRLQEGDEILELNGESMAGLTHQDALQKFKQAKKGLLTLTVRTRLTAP
MAGI3_2, Q5TCQ9, sequence (Q5TCQ9 398-503): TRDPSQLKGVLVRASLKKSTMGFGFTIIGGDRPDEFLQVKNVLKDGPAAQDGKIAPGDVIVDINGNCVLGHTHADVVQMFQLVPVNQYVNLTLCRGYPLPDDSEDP
MAGI2_5, Q86UL8, sequence (Q86UL8 915-1017): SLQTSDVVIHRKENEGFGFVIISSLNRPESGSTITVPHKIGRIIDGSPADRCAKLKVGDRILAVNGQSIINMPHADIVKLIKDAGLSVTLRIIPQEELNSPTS
DLG4_2, P78352, sequence (P78352 155-259): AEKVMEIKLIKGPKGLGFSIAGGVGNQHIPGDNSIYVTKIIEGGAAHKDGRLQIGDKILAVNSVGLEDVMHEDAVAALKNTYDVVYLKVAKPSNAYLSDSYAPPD

pKd (DLG4_2, P78352; [1]): below the threshold
pKd (IL16_1, Q14005; [1]): below the threshold
pKd (MAGI2_2, Q86UL8; [1]): below the threshold
pKd (LNX2_2, Q8N448; [1]): below the threshold
pKd (NHERF3_4, Q5T2W1; [1]): below the threshold
pKd (TX1BP3, O14907; [1]): below the threshold
pKd (SYNJ2BP, P57105; [1]): below the threshold
pKd (FRMPD2_2, Q68DX3; [1]): below the threshold
pKd (FRMPD2_1, Q68DX3; [1]): below the threshold
pKd (SNX27, Q96L92; [1]): below the threshold
pKd (MPDZ_12, O75970; [1]): below the threshold
pKd (DLG5_1, Q8TDM6; [1]): below the threshold
pKd (PDZRN3_1, Q9UPQ7; [1]): below the threshold
pKd (TJP1_2, Q07157; [1]): below the threshold
pKd (LDB3, O75112; [1]): below the threshold
pKd (GRID2IP_2, A4D2P6; [1]): below the threshold
pKd (SNTG1, Q9NSN8; [1]): below the threshold
pKd (SNTG2, Q9NY99; [1]): below the threshold
pKd (TIAM2, Q8IVF5; [1]): below the threshold
pKd (GRIP1_5, Q9Y3R0; [1]): below the threshold
pKd (NOS1, P29475; [1]): below the threshold
pKd (MAGI2_3, Q86UL8; [1]): below the threshold
pKd (MAGI2_5, Q86UL8; [1]): below the threshold
pKd (GRID2IP_1, A4D2P6; [1]): below the threshold
pKd (DLG4_3, P78352; [1]): below the threshold
pKd (MAGI3_2, Q5TCQ9; [1]): below the threshold
pKd (PARD3_3, Q8TEW0; [1]): below the threshold
pKd (SCRIB_2, Q14160; [1]): below the threshold
Binder: PSASCAVTAA [PDLIM4, P50479;P50479-2]

pKd (DLG4_2, P78352; [2]): below the threshold
pKd (IL16_1, Q14005; [2]): below the threshold
pKd (MAGI2_2, Q86UL8; [2]): below the threshold
pKd (LNX2_2, Q8N448; [2]): below the threshold
pKd (NHERF3_4, Q5T2W1; [2]): below the threshold
pKd (TX1BP3, O14907; [2]): below the threshold
pKd (SYNJ2BP, P57105; [2]): below the threshold
pKd (FRMPD2_2, Q68DX3; [2]): below the threshold
pKd (FRMPD2_1, Q68DX3; [2]): below the threshold
pKd (SNX27, Q96L92; [2]): below the threshold
pKd (MPDZ_12, O75970; [2]): below the threshold
pKd (DLG5_1, Q8TDM6; [2]): below the threshold
pKd (PDZRN3_1, Q9UPQ7; [2]): below the threshold
pKd (TJP1_2, Q07157; [2]): below the threshold
pKd (LDB3, O75112; [2]): below the threshold
pKd (GRID2IP_2, A4D2P6; [2]): below the threshold
pKd (SNTG1, Q9NSN8; [2]): below the threshold
pKd (SNTG2, Q9NY99; [2]): below the threshold
pKd (TIAM2, Q8IVF5; [2]): 3.85
pKd (GRIP1_5, Q9Y3R0; [2]): below the threshold
pKd (NOS1, P29475; [2]): below the threshold
pKd (MAGI2_3, Q86UL8; [2]): below the threshold
pKd (MAGI2_5, Q86UL8; [2]): below the threshold
pKd (GRID2IP_1, A4D2P6; [2]): below the threshold
pKd (DLG4_3, P78352; [2]): below the threshold
pKd (MAGI3_2, Q5TCQ9; [2]): below the threshold
pKd (PARD3_3, Q8TEW0; [2]): below the threshold
pKd (SCRIB_2, Q14160; [2]): below the threshold
Binder: VSVDDVRSTSQGLSSY [DFNB31_int, Q9P202]
